These results are taken from patent US10023629B2 (priority 2012, dated 2018).

Assay [1] concerns NIBRG-14ma virus. Set-up: species or system BALB/c mice. The settings on record: mouse, in vivo.
Assay [2] has as its target N1rec, tetrameric recombinant N1 Neuraminidase (Influenza A virus, UniProt Q30CC2). Nature of the assay: biochemical. Set-up: species or system H5N1 A/crested eagle/Belgium/09/2004.
Assay [3] deals with H5N1 NIBRG-23. Description: microbe, parasite or virus in culture. The format is cell-based, H5N1 influenza virus in MDCK cells. The settings on record: Influenza A virus, H5N1, read-out: NIBRG-23, plaque size reduction.
In assay [4] the test system is H5N1 NIBRG-14. Nature of the assay: microbe, parasite or virus in culture. The class given is cell-based, H5N1 influenza virus in MDCK cells.
In assay [5] the target is N1rec, tetrameric recombinant N1 Neuraminidase (soluble recombinant H5N1 NA derived from A/crested e (influenza A virus A/crested eagle/Belgium/01/2004 (H5N1))). Description: SPR (Biacore 3000), N1rec immobilized on CM5 chip, VHHm injected. A general note: In SPR one partner is held on a chip, and binding of the other changes the refractive index at the surface.
For assay [6] the target is unchanged. Description: SPR, immobilized N1rec.
For assay [7] the target is unchanged. Description: cell-based or functional assay.
Assay [8] has as its system N1rec. The format is binding, H5N1 A/crested eagle/Belgium/09/2004.

“Also recorded” adds a separate entry of the source.

On to `CCOC(=O)C1=C[C@@H](OC(CC)CC)[C@H](NC(C)=O)[C@@H](N)C1` [Oseltamivir], for which, in assay [1], the “morbidity (body weight)” value is listed as “significant body weight loss”, the “protection against lethality” value is reported as “protected the mice against lethality; also recorded: full protection” and the “viral RNA in lung homogenates (RT-qPCR Ct)” value was “only slightly different”. Besides, in assay [1] (po, 1 mg/kg/day), the survival was 100%. For the same molecule, in assay [2], the IC50 is 586 nM. In addition, in assay [3], the IC50 stood at 73000 nM. Also, the IC50 in assay [4] (Influenza A virus, H5N1, read-out: NIBRG-14, plaque size reduction) is 15000 nM.

B1: N1-7-VHHm (VHH)
VHH: QVQLQESGGGLVQPGGSLRLSCAASGSRFSRYDMGWYRQAPGKQRELVATITSGGITNYADSVKGRFTISRDNTKNTVYLQMNSLKPEDTAVYYCNAEDPLRAIQLGSLTYEYWGQGTQVTVSS
With B1, in assay [5], the Kd amounted to 63 nM, the koff stood at 0.0028 s⁻¹ and the association rate constant (kon) was 44000 M⁻¹ s⁻¹. Further, in assay [6], the fold lower affinity (KD) than N1-3-VHHm amounted to 100 fold and the fold lower affinity (KD) than N1-5-VHHm amounted to 10 fold.

B2: N1-5-VHHm (VHH)
VHH: QVQLQESGGGLVQPGGSLRLSCAASGSDISIYEMGWYRQAPGKQRELVAAITSGGTTNYADSVKGRFTISRDNAKNTVYLQMNSLKPEDTAVYYCNAADFDLWEYDYWGQGTQVTVSS
For the molecule B2, in assay [5], the Kd came to 4.7 nM, the koff worked out at 0.00058 s⁻¹ and the kon was determined as 120000 M⁻¹ s⁻¹. The IC50 of inhibition of the catalytic N1 NA activity (MUNANA, 160 ng N1rec) in assay [7] worked out at 375 nM.

B3: N1-3-VHHm (VHH)
VHH: QVQLQESGGGLVQPGGSLRLSCAASGSIFSIHDMGWYRRAPGKQRELVAAITSGGSTNYADSVKGRFTISRDNAKNTVSLQMNSLKPEDTAVYYCNAWGEDYGLGEYDSWGQGTQVTVSS
As to B3, in assay [5], the Kd was determined as 0.37 nM, the koff is 0.0013 s⁻¹ and the association rate constant (kon) stood at 3.6e+06 M⁻¹ s⁻¹. Also, the IC50 of inhibition of the catalytic N1 NA activity (MUNANA, 160 ng N1rec) in assay [7] was determined as 425 nM.

B4: N1-7-VHHm: binding but non-inhibitory N1-VHHm control (protein)
VHH: QVQLQESGGGLVQPGGSLRLSCAASGSRFSRYDMGWYRQAPGKQRELVATITSGGITNYADSVKGRFTISRDNTKNTVYLQMNSLKPEDTAVYYCNAEDPLRAIQLGSLTYEYWGQGTQVTVSSHHHHHH
Turning to B4, the “size and number of NIBRG-14 plaques” value in assay [4] was “did not affect the size or number”. In addition, in assay [8], the Koff came to 2.8E^−3 s^−1; the Kon stood at 4.4E^+4 M^−1 · s^−1; the “binding to N1rec after prior binding of another N1-VHHm” value is recorded as “not affected”; the “fold lower affinity KD than N1-5-VHHm and N1-3-VHHm, respectively” value is listed as 10- to 100 fold. In addition, in assay [8] (read-out: KKD), the Kd stood at 63 nM.

For orientation: koff means the rate constant with which the complex falls apart. As a reminder, the kon is a measure of how fast the partners come together.
